Data published in article PMC3386213 (Molecular Biology of the Cell, 2012).

Target: the molecule itself
Test: cross-linking

B1: HA-tagged KCTD6 N-terminal BTB domain (domain or fragment)
chain: MDNGDWGYMMTDPVTLNVGGHLYTTSLTTLTRYPDSMLGAMFGGDFPTARDPQGNYFIDRDGPLFRYVLNFLRTSELTLPLDFKEFDLLRKEADFYQIEPLIQCLNDPKPLYPMDTFEEVVELSSTRKLSKYSNPVAVIITQLTITT
- stoichiometry N: 2
